Measurements from PMC12217166, “Conformational dynamics and membrane insertion mechanism of B4GALNT1 in ganglioside synthesis” (Nature Communications, 2025).
Each block holds one molecule with its values, some of them ahead of it.

What was measured:
[1] = molecular target: His10-ΔN46-B4GALNT1 (human B4GALNT1 lumenal domain construct ΔN46) (human) (UniProt Q00973); test: non-reducing SDS-PAGE; purified protein in SDS loading dye without or with 50 mM DTT, heated 5 min at 95 °C, NuPAGE 4-12% Bis-Tris gel, Coomassie stain; dimer seen without reducing agent
[2] = molecular target: the molecule itself; test: as above

stoichiometry N [1]: 2
Molecule: His10-ΔN46-B4GALNT1 (human B4GALNT1 lumenal domain construct ΔN46) (from UniProt Q00973 47-533) (domain or fragment)

B1: B4GALNT1 lumenal domain construct ΔN27 (entire lumenal domain, human) (domain or fragment)
chain: HHHHHHHHHHGTRDAPGLRLPLAPWAPPQSPRRPELPDLAPEPRYAHIPVRIKEQVVGLLAWNNCSCESSGGGLPLPFQKQVRAIDLTKAFDPAELRAASATREQEFQAFLSRSQSPADQLLIAPANSPLQYPLQGVEVQPLRSILVPGLSLQAASGQEVYQVNLTASLGTWDVAGEVTGVTLTGEGQADLTLVSPGLDQLNRQLQLVTYSSRSYQTNTADTVRFSTEGHEAAFTIRIRHPPNPRLYPPGSLPQGAQYNISALVTIATKTFLRYDRLRALITSIRRFYPTVTVVIADDSDKPERVSGPYVEHYLMPFGKGWFAGRNLAVSQVTTKYVLWVDDDFVFTARTRLERLVDVLERTPLDLVGGAVREISGFATTYRQLLSVEPGAPGLGNCLRQRRGFHHELVGFPGCVVTDGVVNFFLARTDKVREVGFDPRLSRVAHLEFFLDGLGSLRVGSCSDVVVDHASKLKLPWTSRDAGAETYARYRYPGSLDESQMAKHRLLFFKHRLQCMTSQ
modifications: N-linked glycosylation (3 predicted sites, positions not given)
stoichiometry N [2]: 2
